We go through eleven molecules from article PMC2448379.

Where no end group is shown, it is not given here.

In the first assay the target is T1, S. cerevisiae Pex5p TPR domain (305 aa), Gal4p DNA-binding domain fusion (pAH987) (S. cerevisiae).
T1 sequence (P35056 whole entry, looked up): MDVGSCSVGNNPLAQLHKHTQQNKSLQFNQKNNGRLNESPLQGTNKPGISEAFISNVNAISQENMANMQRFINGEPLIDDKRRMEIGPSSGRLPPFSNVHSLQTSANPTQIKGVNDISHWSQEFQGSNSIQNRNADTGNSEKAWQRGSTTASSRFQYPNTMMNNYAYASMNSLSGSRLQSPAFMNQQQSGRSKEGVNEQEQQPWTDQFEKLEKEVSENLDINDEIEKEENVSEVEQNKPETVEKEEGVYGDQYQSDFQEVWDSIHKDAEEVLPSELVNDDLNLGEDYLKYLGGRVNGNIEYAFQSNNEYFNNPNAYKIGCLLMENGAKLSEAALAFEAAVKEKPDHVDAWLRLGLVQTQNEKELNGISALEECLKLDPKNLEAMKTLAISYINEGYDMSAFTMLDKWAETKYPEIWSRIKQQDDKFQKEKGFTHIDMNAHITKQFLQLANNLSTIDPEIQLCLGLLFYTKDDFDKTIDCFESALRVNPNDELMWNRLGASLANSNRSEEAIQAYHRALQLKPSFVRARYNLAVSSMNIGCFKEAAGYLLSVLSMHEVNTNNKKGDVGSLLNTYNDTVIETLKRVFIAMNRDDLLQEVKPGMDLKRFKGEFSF
Description: two-hybrid; yeast strain PCY3; Pex5 TPR domain in pGBT9 (Gal4p DNA-binding domain) with Gal4p activation domain-peptide fusions in pGAD GH; b-galactosidase activity measured with O-nitrophenyl-b-D-galactoside on cells grown at 30 C in liquid selective medium; mean of three independent experiments per strain. Particulars: scale: nmol O-nitrophenyl-b-D-galactoside hydrolysed/min/mg protein.
Molecule Gal4p-FEWGSQGWTRGRMHML registered a b-Galactosidase activity of 39.

Gal4p-CERSKL [Gal4p-CERSKL] came in with a b-Galactosidase activity of 163.

Another assay has as its target C. elegans PEX-5 TPR domain (267 aa), Gal4p DNA-binding domain fusion (pSL8) (C. elegans). The description is as above. To be noted: scale: nmol O-nitrophenyl-b-D-galactoside hydrolysed/min/mg protein.
For Gal4p-GKNRGSESHGSARQKL, the b-Galactosidase activity worked out at 57.9.

Gal4p-QRKANGRDRGGWWAKL showed a b-Galactosidase activity of 631.

Gal4p-KRVWRRQWSTGRKLKL returned a b-Galactosidase activity of 3.8.

In the case of Gal4p-RQRELSANALGGLAKL, the b-Galactosidase activity came to 447.

Turning to Gal4p-NGMTRSGRQGGGFAKL, the b-Galactosidase activity worked out at 352.

Gal4p-EGLIVMLERGKL returned a b-Galactosidase activity of 143.

On to Gal4p-TWNRETKGLNAVYGKL, for which the b-Galactosidase activity amounted to 90.3.

Turning to Gal4p-WYGPGPGCCRRRDLKL (cysteine pairing not given here), the b-Galactosidase activity stood at 4.4.

Molecule Gal4p-SGGVVARAAKM registered a b-Galactosidase activity of 293.
